From US20150191542A1 (INNATE PHARMA S A, published 2015) come the findings set out here.

The target of assay [1] is T1, MICA*008 expressed on C1R transfectant cells (human, UniProt Q29983 24-297, Glycosylated on cells; the letters do not carry this.).
T1 construct: also called C1R-MICA*008; C1R-MICA*08
T1 chain: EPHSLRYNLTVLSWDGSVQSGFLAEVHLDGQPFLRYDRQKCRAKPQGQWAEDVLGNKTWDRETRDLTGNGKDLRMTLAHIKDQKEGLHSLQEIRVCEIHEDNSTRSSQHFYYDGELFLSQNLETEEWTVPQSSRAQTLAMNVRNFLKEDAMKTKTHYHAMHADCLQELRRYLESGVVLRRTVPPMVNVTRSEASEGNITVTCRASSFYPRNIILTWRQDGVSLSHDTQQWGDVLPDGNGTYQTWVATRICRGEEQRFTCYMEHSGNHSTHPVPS
The assay is described as follows: flow cytometry on C1R-MICA*008 cells, 3-parameter logistic fit. As to the method:
(§1) The binding of antibodies obtained from the first and second immunization series (including 9C10, 20C6 and 16A8) were tested for binding to MICA-expressing CR1 transfectant cells C1R-MICA*001, C1R-MICA*004, C1R-MICA*007 and C1R-MICA*008 (Pr. A. Steinle, Eberhard-Karls University Tuebingen, Germany) described in Salih et al. (2003) Blood 102(4): […]. Binding was analyzed by flow cytometry.
(§2) Cells were harvested and stained in PBS 1×/BSA 0,2%/EDTA 2 mM buffer during 30 minutes at 4° C. using a dose-range of the anti-MICA mAbs. After two washes in staining buffer, cells were stained for 30 min at 4° C. with goat anti-mouse (H+L)-PE polyclonal antibodies (1/200). After two washes, stainings were acquired on a BD FACS Canto II and analyzed using the FlowJo software.
Antibodies 9C10, 20C6 and 16A8 bound to each of the C1R-MICA*001, C1R-MICA*004, C1R-MICA*007 and C1R-MICA*008 cells (see FIGS. 3A, 3B and 3C for antibodies 9C10, 20C6 and 16A8 respectively). […] EC50 values are shown in Table C in μg/ml (calculated using a 3-parameter logistic fit).

A further assay deals with T2, ULBP1-Fc protein (UniProt Q9BZM6 26-216, limits assumed).
T2 construct: also called ULPB1; not shown: Fc part
T2 sequence (looked up): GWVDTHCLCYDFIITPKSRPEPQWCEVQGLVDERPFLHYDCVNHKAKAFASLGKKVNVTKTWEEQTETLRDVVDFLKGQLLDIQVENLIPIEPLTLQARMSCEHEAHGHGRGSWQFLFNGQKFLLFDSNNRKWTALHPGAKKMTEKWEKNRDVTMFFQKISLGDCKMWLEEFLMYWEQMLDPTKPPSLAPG
The assay is described as follows: SPR Biacore T100, biotinylated antibody captured on CAP chip, Fc protein injected. As to the method: (§3) The binding of 9C10, 20C6 and 16A8 to either recombinant human MICA extracellular domain recombinant protein monomers or dimers (MICA*019 allele-Fc protein or MICA*001-His protein) as well as other NKG2D ligands MICB and ULBP1-2 was analyzed by Surface Plasmon Resonance (SPR) using a Biacore T100 apparatus to obtain monovalent and bivalent affinity, respectively. Biotinylated anti-MICA antibodies were injected at a constant rate of 10 μl/min over the Sensor Chip CAP flow-cells comprising Biotin CAPture Reagent. MICA-Fc or MICA-His protein, MICB-Fc, ULBP1-Fc or ULBP2-Fc protein is then injected successively (range of concentrations between 0.01-100 nM), with regeneration between injections, and in increasing order over two flowcells simultaneously. Curves are fitted using Biacore T100 Evaluation software.
(a) General Biacore T100 methods. SPR measurements were performed on a Biacore T100 apparatus (Biacore GE Healthcare) at 25° C. In all Biacore experiments HBS-EP+ buffer (Biacore GE Healthcare) or 10 mM sodium acetate pH 7.4, 150 mM NaCl, 0.05% P20 served as running buffer and sensorgrams were analyzed with Biaevaluation 4.1 and Biacore T100 Evaluation software. Recombinant human and mouse TLR3 were purchased from R&D Systems.
(In general: SPR reads the build-up and loss of mass on a sensor chip optically.)

Assay [2] addresses T1, MICA*008 expressed on C1R transfectant …. Nature of the assay: flow cytometry, MFI against antibody concentration on C1R-MICA*08 cells. The method, then: as §1, §2
Assay [3] addresses T3, recombinant human MICA extracellular domain recombinant-Fc protein (MICA*019 allele) (human, UniProt Q29983 24-297).
T3 construct: Bought from R&D Systems; also called MICA*019-Fc; MICA-Fc; not shown: Fc part of the bought fusion protein (R&D Systems)
T3 chain: T1 chain with G175S
The assay is described as follows: SPR Biacore T100, biotinylated antibody captured on CAP chip, MICA*019-Fc injected; bivalent mean KD at pH 7.4; on MICA*019-Fc; bivalent, pH 7.4. The method, then:
as §3
Antibody 16A8 bound MICA and MICB but not ULBP1 or ULBP2. Results are shown in FIGS. 1A, 1B, 1C and 1D for MICA, MICB, ULBP1 and ULPB2 respectively.

Assay [4] has as its target T4, MICA*001 expressed on transfected cells (human).
T4 construct: the cells carry the complete allele; also called C1R-MICA*001; C1R-MICA*01
T4 chain: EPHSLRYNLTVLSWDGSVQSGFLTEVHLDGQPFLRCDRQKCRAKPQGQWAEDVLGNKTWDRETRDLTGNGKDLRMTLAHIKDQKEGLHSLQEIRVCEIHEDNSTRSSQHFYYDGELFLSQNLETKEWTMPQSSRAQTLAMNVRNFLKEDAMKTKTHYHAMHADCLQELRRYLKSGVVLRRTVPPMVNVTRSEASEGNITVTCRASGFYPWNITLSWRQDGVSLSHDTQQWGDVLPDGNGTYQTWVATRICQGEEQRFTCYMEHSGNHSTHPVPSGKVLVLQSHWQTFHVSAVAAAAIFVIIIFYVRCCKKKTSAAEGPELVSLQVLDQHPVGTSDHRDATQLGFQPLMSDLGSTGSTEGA
Nature of the assay: flow cytometry, MFI against antibody concentration on C1R-MICA*01 cells. The method, then: as §1, §2
Background: Flow cytometry measures light scatter and fluorescence of single cells or particles in a stream.

One may read the EC50 as the concentration giving half of the maximal effect. High values mean weaker potency, low ones greater potency. Usually EC50 (read off the curve) stands for the concentration at which the effect is half-maximal.

Residue numbers refer to the chain shown, from its start.

B1: antibody 9C10 (antibody, V domains shown)
VH: QVQLQQPGAELVRPGTSVNLSCKASGYSFTRYWMNWVKQRPGQGLEWIGMIHPSDSETRLNQKFKDKATLTVDKSSSTAYMQLSSPTSEDSAVYYCGYGNFFYVMDYWGQGTSVTVSS
VL: DILLTQSPAILSVSPGERVSFSCRASQSIGTSIHWYQQRTNGSPRLLIKFASESISGIPSRFSGSGSGTDFTLNINSVESEDIADYYCQQSNFWPFTFGSGTKLEVK
modifications: Biotinylated when captured in the SPR assays (9C10-Biot); the sites are not given.
notes: Murine hybridoma antibody of IgG2b isotype as tested; also called 9C10-Biot
Regarding B1, in assay [1], it took 0.15 µg/mL to reach a half-maximal effect (EC50). In addition, in the assay with ULBP1-Fc protein, the binding result is reported as “no binding (tested: 0.01-100 nM)”. Moreover, the “EC50 (read off the curve)” value in assay [2] was about 0.2 µg/mL. Further, the Kd in assay [3] was 0.62 pM.

B2: antibody 16A8 (antibody, V domains shown)
VH: EVQLVESGGGLVKPGGSLKLSCAASGFTFSRYAMSWVRQTPEKRLEWVATIFSGGSYTYYPDSVKGRFTISRDNANNTLYLQMSSLKAEDTAMYFCARPNWERTFDYWGQGTTLTVSS
VL: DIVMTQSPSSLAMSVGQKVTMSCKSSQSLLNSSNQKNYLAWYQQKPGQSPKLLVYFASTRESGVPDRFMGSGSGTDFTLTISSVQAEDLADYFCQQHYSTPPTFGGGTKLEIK
notes: Murine hybridoma antibody of IgG2a isotype as tested; also called 16A8-Biot
Take B2: a half-maximal response in assay [1] (EC50) required 0.33 µg/mL. Besides, the concentration for a half-maximal effect (EC50 (read off the curve)) in assay [4] is about 0.3 µg/mL.
